The numbers were not newly measured in patent publication US7186797B2, “Polypeptide conjugates with extended circulating half-lives” (Epix Pharmaceuticals, Inc., priority 2001, dated 2007), which cites them from elsewhere.

The conditions of this data set: unconjugated polypeptide drug, background statement.

In the case of “Erythropoietin: commercially important polypeptide-based drug currently in use”, the t1/2 is 180 min.
In the case of “granulocyte macrophage colony stimulating factor: commercially important polypeptide-based drug currently in use”, the t1/2 is 120 min.
Regarding “human growth hormone: commercially important polypeptide-based drug currently in use”, the t1/2 is given as 30 min.
relaxin: the t1/2 is 30 min.
Regarding streptokinase, the t1/2 was 80 min.
On to “tissue plasminogen activator: commercially important polypeptide-based drug currently in use”, for which the t1/2 is reported as 55 min.
As for tumor necrosis factor, the t1/2 is 18 min.
Regarding urokinase, the t1/2 was 50 min.

B1: granulocyte colony stimulating factor: commercially important polypeptide-based drug currently in use (protein, UniProt P09919 31-207, looked up)
Granulocyte …: TPLGPASSLPQSFLLKCLEQVRKIQGDGAALQEKLVSECATYKLCHPEELVLLGHSLGIPWAPLSSCPSQALQLAGCLSQLHSGLFLYQGLLQALEGISPELGPTLDTLQLDVADFATTIWQQMEELGMAPALQPTQGAMPAFASAFQRRAGGVLVASHLQSFLEVSYRVLRHLAQP
For the molecule B1, the t1/2 is 120 min.

B2: interferon γ: commercially important polypeptide-based drug currently in use (protein, UniProt P01579 24-161, looked up)
Interferon gamma: QDPYVKEAENLKKYFNAGHSDVADNGTLFLGILKNWKEESDRKIMQSQIVSFYFKLFKNFKDDQSIQKSVETIKEDMNVKFFNSNKKKRDDFEKLTNYSVTDLNVQRKAIHELIQVMAELSPAAKTGKRKRSQMLFRG
On to B2, for which the t1/2 is recorded as 30 min.
